# Assay results published in patent US20040191910, “Genes encoding plant transcription factors” (International Research Center for Agricultural Sciences, published 2004).
# B1: DRE 75 bp fragment of rd29A promoter (dsDNA)
# DNA 1: ACATCAGTTTGAAAGAAAAGGGAAAAAAAGAAAAAATAAATAAAAGATATACTACCGACATGAGTTCCAAAAAGC
# DNA 2: GCTTTTTGGAACTCATGTCGGTAGTATATCTTTTATTTATTTTTTCTTTTTTTCCCTTTTCTTTCAAACTGATGT
# Biological target: OsDREB2A (Oryza sativa, UniProt A2WL19 SEQ:1-163)
# Experiment: EMSA; room temperature 20 min, 5% PAGE 0.25x TBE
# Settings: tags: N-terminal GST (pGEX-4T-1), cDNA nt 334-822; label: 32P
# Procedure: The E. coli into which the protein had been induced was suspended in 18 ml of buffer (10 mM Tris-HCl, pH 8.0, 0.1 mM EDTA, 5 mM MgCl₂, 400 mM NaCl, 5% glycerol, 0.1 mM phenylmethylsulfonyl fluoride, 0.1 mM dithiothreitol). Then, 1% Triton X-100 and 1 mM EDTA were added thereto. After the cells were disrupted by sonication, the disrupted material was centrifuged at 20,000 g for 1 hour. Then, the protein was purified from the supernatant using glutathione-Sepharose (Pharmacia). The resultant fusion protein was incubated at room temperature for 20 minutes using the DRE sequence-containing 75 bp DNA fragment (SEQ ID NO: 16) labeled with ³²P as a probe. This mixture was electrophoresed using 5% polyacrylamide containing 0.25×Tris-borate-EDTA at 120 V for 90 minutes. As a result of this gel shift assay, those bands which migrated to the back were detected. When the DNA fragment containing the mutated DRE sequence was used as a probe, such bands were not detected. Thus, it became evident that OsDREB1A and OsDREB2A proteins specifically bind to the DRE sequence (FIG. 4).
# Chain of OsDREB2A (A2WL19 1-163): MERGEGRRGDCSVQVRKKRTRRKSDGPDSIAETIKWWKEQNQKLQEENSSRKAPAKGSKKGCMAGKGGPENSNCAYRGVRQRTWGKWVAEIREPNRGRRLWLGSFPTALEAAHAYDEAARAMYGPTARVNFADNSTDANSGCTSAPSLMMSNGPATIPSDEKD
binder,measurement,value
B1,binding result,binds
